Columns and labels:
[1] = molecular target: FMDV 혈청형 O (진천주) (Foot and Mouth Disease Virus serotype O (Jincheon strain))
[2] = molecular target: FMDV 혈청형 O (진천주) (Foot and Mouth Disease Virus serotype O (Jincheon strain)); experiment: cell-based or functional assay

B1: 단클론항체 8B87 (antibody, V domains shown)
VH: KKPGETVKISCKASGYTFTNYGVSWVKQVPGKGLKWMGWINTNTGKPAYADDFKGRFAFYLDTSASTAYLQISNLKNEDEATYFCVIYHDYLWFAYWGQGTLITVSA
VL: NIVLTQSPASLAVSLGQRATISCRASNSVDTYGNSFMHWYQQRPGQPPKLLIFLASDLESGVPGRFRGSGSRTDFTLTIDPVEADDAATYYCQQNYADPWTFGGGTKLEIK
- ELISA screening plate (O.D 450nm) [1]: 2.23 O.D 450nm
- VNT titer [2]: 64
